Results taken from patent US7939631B2, “APO-2 receptor polypeptides” (Genentech, Inc., priority 1997, dated 2011).
One block for each compound: values may come before it. Square brackets hold non-standard residues; d marks the D form. Peptide text beside a SMILES is read from it. Nle = CCCC[C@H](N)C(=O)O

Legend:
HeLa cells = type: cell-based, human; conditions: 5 hour
Apo-2L [1] = molecular target: T1, Apo-2L (Homo sapiens, UniProt P50591); experiment: Co-precipitation (immunoprecipitation) assay of Apo-2 ECD-Flag with His-tagged Apo-2L; type: binding; conditions: 293 cell supernatant with Apo-2 ECD-Flag, 5 μg poly-histidine-tagged soluble Apo-2L; FIG. 3
T1 construct: poly-histidine; made in house
Method: The samples were subjected to immunoprecipitation using 25 μl anti-Flag conjugated agarose beads (Sigma) or Nickel-conjugated agarose beads (Qiagen). After a 1.5 hour incubation at 4° C., the beads were spun down and washed four times in phosphate buffered saline (PBS). […] The precipitated proteins were released by boiling the beads for 5 minutes in SDS-PAGE buffer, resolved by electrophoresis on 12% polyacrylamide gels, and then detected by immunoblot with anti-Apo-2L or anti-Flag antibody (2 μg/ml) as described in Marsters et al., J. Biol. Chem., (1997).
Target sequence in this assay (P50591 39-281 limits assumed): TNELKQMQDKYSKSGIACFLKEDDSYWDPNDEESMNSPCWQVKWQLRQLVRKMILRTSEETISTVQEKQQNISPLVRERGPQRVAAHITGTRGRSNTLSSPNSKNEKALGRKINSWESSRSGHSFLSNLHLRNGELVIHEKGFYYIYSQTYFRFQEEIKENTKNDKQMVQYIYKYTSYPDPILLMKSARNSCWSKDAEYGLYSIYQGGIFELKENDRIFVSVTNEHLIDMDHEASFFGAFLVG

Fas/Apo-1 ligand = molecular target: T2, Fas/Apo-1 ligand (Homo sapiens, UniProt P48023); experiment: BIACORE analysis of purified Apo-2 ECD; type: binding
T2 construct: purchased Alexis Biochemicals
T2 sequence (P48023 103-281 limits assumed): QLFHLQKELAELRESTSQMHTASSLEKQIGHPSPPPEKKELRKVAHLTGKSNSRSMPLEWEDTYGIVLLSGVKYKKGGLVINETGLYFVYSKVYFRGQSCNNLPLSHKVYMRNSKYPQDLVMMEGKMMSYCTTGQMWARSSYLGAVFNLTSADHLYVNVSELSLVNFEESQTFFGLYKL
From the text: (§1) The binding interaction was further analyzed by purifying Apo-2 ECD from the transfected 293 cell supernatants with anti-Flag beads (see Example 2) and then analyzing the samples on a BIACORE™ instrument.

lymphotoxin-alpha = molecular target: T3, lymphotoxin-alpha (Homo sapiens, UniProt P01374); experiment: BIACORE analysis of purified Apo-2 ECD; type: binding
T3 sequence (P01374 35-205): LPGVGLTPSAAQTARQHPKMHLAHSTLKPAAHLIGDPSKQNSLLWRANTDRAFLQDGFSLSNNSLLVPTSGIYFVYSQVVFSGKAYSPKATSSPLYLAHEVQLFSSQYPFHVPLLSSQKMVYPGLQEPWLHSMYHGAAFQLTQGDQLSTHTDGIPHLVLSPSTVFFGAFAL
From the text: as §1

TNF-alpha = TNF-alpha (Homo sapiens, UniProt P01375); experiment: BIACORE analysis of purified Apo-2 ECD; type: binding
Chain of TNF-alpha (P01375 77-233 limits assumed): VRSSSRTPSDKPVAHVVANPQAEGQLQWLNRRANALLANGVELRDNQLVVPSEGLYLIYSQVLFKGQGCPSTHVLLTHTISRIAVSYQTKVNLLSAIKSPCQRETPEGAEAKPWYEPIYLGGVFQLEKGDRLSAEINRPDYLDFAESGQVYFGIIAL
From the text: as §1

Apo-2L [2] = molecular target: T1, Apo-2L; experiment: Inhibition of Apo-2L activity by soluble Apo-2 ECD, apoptosis by FACS; type: cell-based; conditions: Apo-2L 0.5 μg/ml pre-incubated 1 hour; Apo-2 ECD 5 μg/ml with anti-Flag antibody 1 μg/ml; FIG. 4D
Method: After a 5 hour incubation, the cells were analyzed for apoptosis by FACS (as above) (FIG. 4D).
Target sequence in this assay (P50591 114-281 limits assumed): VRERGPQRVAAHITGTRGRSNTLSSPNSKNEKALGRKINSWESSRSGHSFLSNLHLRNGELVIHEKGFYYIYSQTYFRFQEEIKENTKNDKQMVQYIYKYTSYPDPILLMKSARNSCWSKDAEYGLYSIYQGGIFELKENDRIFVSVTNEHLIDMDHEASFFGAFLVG

[3] = test system: HeLa cells transfected with Apo-2; type: cell-based, human

Compound: CCCC[C@@H](C=O)NC(=O)[C@H](CC(C)C)NC(=O)[C@H](CC(C)C)NC(C)=O [ALLN, N-acetyl-Leu-Leu-norleucinal] (Ac-Leu-Leu-[Nle]-aldehyde)
effect on level of Apo-2L-induced apoptosis (HeLa cells): increased the level of Apo-2L-induced apoptosis

complex formation with Apo-2L by co-precipitation (Apo-2L [1]): can associate with each other
binding to Fas/Apo-1 ligand (Fas/Apo-1 ligand): not capable of binding
binding to TNF-alpha (TNF-alpha): not capable of binding
blocking of Apo-2L action (apoptosis in HeLa cells) (Apo-2L [2]): capable of blocking Apo-2L action
Compound: Apo-2 ECD: Soluble Apo-2 extracellular domain (amino acid residues 1-184 of FIG. 1) fused to a C-terminal Flag epitope tag
binding to lymphotoxin-alpha (lymphotoxin-alpha): not capable of binding

Compound: DEVD-fmk
effect on apoptosis induction by Apo-2 [3]: blocked apoptosis induction by Apo-2

Compound: cyclohexamide
effect on level of Apo-2L-induced apoptosis (HeLa cells): increased the level of Apo-2L-induced apoptosis

Compound: z-VAD-fmk
effect on apoptosis induction by Apo-2 [3]: blocked apoptosis induction by Apo-2
